Experimental data taken from a protein production outcome set (Wang et al. 2014).

Experiment: label from the status in PepcDB records

Row | Sequence | protein production
1 | MSGTGEVRGMRAARIAAGAVIPGELALAVCLAAGVRPPVWATAAAEAVALAVLMLEAWVLRSLYASRRAQGLEPPAALRAAVRAVVPARVRRLLVHELRAAASLGRWAARRKHGVRPGDHVAGYTGPQTAMMYGLIFVSVIETVALAVLIPWPVVHRVLLVLDVYGVLMMLGLHAACVTRPHVARPDGSLRIRYGALFDLAVPADAVASVRVDRCYPQGRLVTLSEKGVLDLIVAGQTTVTLELTRPLVFTRPLGGRGEARTIRFHADDPRALVGALRRPALT | failed
2 | MFTMVQKLWLTVVCAVFVTVSFLYFVSLYSYEKLYVDNLKDSLVMEGKRLSAQYDKREGISIFEEKVRAFDQISSSDVLFVSNPRDLSACLPFDVHHHSLISEGDRQALLDGKTVTKIGYEEHFDRNIMGVVIPVLENKKLVGIVYSYIPLKSIKDLIYDMGLILAPLALAITLLTIWIGRKIIIAITKPLSQMERVANHLATGDFSERITISSEDEIGRLGKAFNKMANSLETEDVKRKEFLANVSHELRTPLSYIKGYSEAILDGVAKGPQQEKVTQLIHKEADRMQRLVHDLLDLAQLEGEHFPLKKQPIVFSQLIEDVLDTYEIKFIEKKIRISTNLNPEIIVMIDEDRMQQVLHNVLDNAIRYTNQNGDIIVTLRQIDDYCELNIKDTGIGIDTEHLENLGERFYRVDKARSRQHGGTGLGLAIVRQIVHIHDGQWRIESEKGNGTTVSIKLKVQDEESMF | failed
3 | MAVLGQLGFMIAFLSGGVAAGHFGLLTERRTDILTTLVFTVALPALIFRSTYDRPLQEIISPALLGGFWVIIALTITLGWLVHRRLESADRRSVSVVQSYHSNMGFLGLPLVAATMGSEATAVASVILGIGAVTHVPVTVFLLVRINGSDASLLSECRKLVTNPVLIALAAGITASVLSLSVPESLISALGPPAELALPVALLCIGATLDTDLPVSDLQKTVSVVGLKVLWMPALAWLVYSSLSMDTTALGAAVVMLGTPTAVSTYVYTTELGGDAAFASLNVFTSTVVSIGTLSLLVWLFT | failed
4 | MIKLPVLLADINIQSLPTEPELILNNLAITTLVENLIILLLVATLVALVARWLKIPYVIGLVLAGLAIPRGLSVGLNPELILNFFLPILIFEAAINTDISRLRSTIKPITVLAGPGVVISAAITAVLLKIGLGLAWVTAAGVSVILTITDTVSVIAAFRSVPVPRRLATIVEGESMLNDGVAMVLLSVITTIHIQGGFSAGEGIRQIFVAFVGGGLVGLGLGYLCVGLFRQLNDDLSDILLTVSVSLGTFQIGQMLGVSSAIAVVVAGLVIGNLALKQTSASIKVTLLSFWEYAGFGVNTLIFLLVGIEVYPSILLSTIPAALIAIVAYQIGRVFSIYPLLYLLSFFDRPLPLRWQHVLIAGNVKGSLSMALALALPLTLPGRDQVVTLVFSTVMVSLIGQGLSLPWVVKKLQLSKPSPLAQKIAMLQLNLVTAKAAQGELKYLLEAGSLPKFLYEELFADYQARIANSEQELREFYNQRNLIFSEGEVEKKYIDGLYRRLYIAEKSAINDALAKGILADDISDEYLQVLNEKLLALQDD | failed
5 | MISHFGAPLIRYDPALQGHAVPQLDMKTFTRRQHRPRPLILAVGLGLGIALTAPLAAAQNAPSSQPWRDTALTADQRADRLLAQMTEDEKFQMLRSYLGLGTDKIPKPAGALGSAGYVPGIARLGIPAQQLADAGVGVTNPGGIRKGDYATAMPSVLSTASSWNRQLAYAGGKTMGRESWQQGFNVLLAGSVNLQRDPRNGRNFEYAGEDPLLAGTMVGESIRGVQSEHVLSTMKHFALNDMETRRNFHSAQIGEQAMHESDLLAFEIALKIGDPASVMCSYNKINGVYGCEHDYLLNQVLKQEWKYPGYVMSDWGGVHSGSKAALAGLDQESAGEVFDVAVFFDAPLRMAVSAGVVPRARFDDMVKRILRSLFAHGAFDYPTQRQPIDGKAGLLAAQHVAEAGSVLLRNEQAMLPVSQDVRRIAVIGGYADKGVMSGGGSSRVDVTINGGNAVPGITPTTWPGPVIIHPSSPLQALRAALPNAQIDYVDGKDRAAAARAAKAADVAIVFATQWATESVDLPDMRLPDNQDALIEAVAKANPKTTVVLETNGPVRMPWAERVPAVLQAWYPGIGGGEAIANLLTGTVNPSGHLPVTWPVDESQLPRPSIPGLGFKPAKPGEDTIDYAIEGANVGYKWFAAHKLTPRYPFGHGLSYTQFRMDGLRVEANGSQLTASFEVENIGQREGAAVPQLYVTLPDGHATPLRLIGWQKLTLKPGEKRSVQVVAEPKTLADFDAQARRWTIAAGTYRVQLARSASEPVQSAAVTLQAAQLP | failed
6 | MMDLHTHTVYSDGIGLIRDNVAWAEKRGLKIVGISDHIHFFTPSRFSAYINEINVIKEESEIVVLAGIEANILENGPDITDEFRKKLDYAIASVHEWFGRNGTHEYINYVKKAIMDDNVDIIGHFGNSFPWIGYPTREEIDEILDLAEAYGKAFEISARYKVPDLEFIRECVKRGIKLSLATDAHRPEDVGKVSWSLKMLEKAGGTKEDLIFSEYL | failed
7 | MKTIEIFDPAMCCPTGLCGTNINPELMRIAVVIETLKRQGVVVTRHNLRDEPQVYVSNKTVNQYLQKNGAEALPITLVDGEIAVSKDYPTTKQMSEWTGINLD | not failed
8 | MSHAHKKHKENAPKSLNFYVITISTSRYEKLLKKEPIVDESGDIIKQLLIENGHKIIGYSLVPDDKIKILKAFTDALSIDEVDVIISTGGTGYSPTDITVETIRKLFDREIEGFSDVFRLVSFNDPEVKAAAYLTKASAGIIGKKIVYLLPGSPDAVKLALKELILPEVGHLVYLVRS | not failed
9 | EDYSCFIFRHFPQVQIHPHAQRAAQAAEAAAAQGQFWLMNDTLFDHQQRLENGYLVEYANDLGLDIPQFLKELAKQVHVDRIKKDIEGGLQSGVMAVPALFVNGILYRDCWNIKQLIATIIASSY | failed
10 | MANDPRHLPSRKLLVTCALPYANGSIHLGHMLEHIQADIWVRYQRLRGNTVNFICADDAHGTPIMLKAQQMGITPEEMIAAVSEEHQKDFAGFDISFDNYHSTHSEENRELASHIYLELKKNGFISSRTISQLFDPEKEMFLPDRFVKGTCPKCKSEDQYGDNCDNCGETYSPTELINPKSAVSGATPVMKDSEHFFFDLPQFESMLKEWTRSGSLQSETANKMQEWFESGLQQWDISRDAPYFGFEIPGEKDKFFYVWLDAPIGYMGSFKNLCNKRDDLDFDEYWNKDSKTELYHFIGKDIVYFHSLFWPAMLEGSGFRKPNNVFVHGYVTVNGAKMSKSKGTFVKASTYLDHLDPECLRYYYAAKLNSRIDDLDLNLEDFTQRVNADVVNKIVNLASRNAGFIAKRFEGKLSDNFAEPELYNEFVAAADRIAELFEAREFGRAIREITALADKANQYVDEKAPWVVAKEEGKDQELQEICSVGINLFRVLMTYLKPVMPALAARTEAFLNQELTWEGIAQPLTGHEITKFKALFNRIDPKNIEAMIEASKEDAAAEMAAKEKAEAAKTETELSKDPIADEIEFDTFAQVDLRIARIISCEEVPKANKLLKFQLDIGGETRQVFSGIKSAYKPEELEGKLTVMVANLKPRKMKFGMSEGMILAAGPGGSDLWILEPHEGAQPGMRVM | failed
11 | CMPYRVEIFDTSHHSSSQCVGGMVVYENNAFQKNSYRRYHLKGSDEYTQMSELLTRRALDFAKEPPPNLWVIDGGRAQLNIALEILKSSGSFVEVIAISKEKRDSKAYRSKGGAKDIIHTPSDTFKLLPSDKRLQWVQKLRDESHRYAINFHRSTKLKNMKQI | failed
12 | MSMVVNSSDQAITMESLGISGHCDDVFCNELTATVIGEMTKRPTRLDIPIGVDGFVAPISSSADVTVTSREECREVEREGYEDTVNNEEISKPKSMKLLAHAGDDESIKRQENEDDDGRTTVDDDDGRGRINVSRLKALLMITTRE | failed
13 | MLPVLETTAHSPLTIVWFVLITVLWVGFFFLEGFDFGVAMLLPFLGRDDKDRRLMVNTIGPTWDGNEVWLLTAGGATFAAFPGWYATMFSGLYLPLLLVLLGLIVRGVAFEYRSKNPSSSWRNAFDWMATIGSFLPTLVLGVGFANFVRGLAVGPHSTPDGGTAPLVTTSFWGLFTPFALIGGILFVVLFCAHGANFVALKTMGDMHDRARKTSAKLGWIATVVALVWALMFNIMYVTRDGRQVLTWIICLLVVVLLAAGSAVVAKGREGLAFLCTALGIALMIVACMFAMYGNLGYRPSGIAFDMWIASATGRTLKIMTISACVFVPIVLAYQVWSYWVFRKRLTREAIPDTAVAA | failed
14 | MKLHLEIWRQAGPNSEGHFEPIDVNDAVPQMSVLELLDHVNTGLIEEGKEPFVFASDCREGICGTCGLLVNGRPHGLDKNKPSCQQRLDHVPDGSTLKIEPLRSAAYPVVKDLLVDRSALDRVLEKGGFVSINAGTAPDADTLHQNHESAELALDH | failed
15 | MDCRKMARFSYSVIWIMAISKVFELGLVAGLGHQEFARPSRGYLAFRDDSIWPQEEPAIRPRSSQRVPPMGIQHSKELNRTCCLNGGTCMLGSFCACPPSFYGRNCEHDVRKENCGSVPHDTWLPKKCSLCKCWHGQLRCFPQAFLPGCDGLVMDEHLVASRTPELPPSARTTTFMLVGICLSIQSYY | failed
16 | MKKIATATIATAGIATFAFAHHDAQAAEQNNDGYNPNDPYSYSYTYTIDAEGNYHYTWKGNWSPDRVNTSYNYNNYNNYNYYGYNNYSNYNNYSNYNNYNNYQSNNTQSQRTTQPTGGLGASYSTSSSNVHVTTTSAPSSNGVSLSNARSASGNLYTSGQCTYYVFDRVGGKIGSTWGNANNWANAAARSGYTVNNSPAKGAILQTSQGAYGHVAYVEGVNSNGSIRVSEMNYGHGAGVVTSRTISASQAASYNYIHLEHHHHHH | failed
17 | MKMKHAFGPIILACVLFFIIILIPSKSLVSLISDKKVEDAATSLQKEKLQSVFLQQKMLENSQYLPMYGSSEFLRMDAYHPSNYFKVNPAGFTPYLIGIGGTQSLAHILNMTSTIDELEGKKVVFVLSPQWFTKTGVSQGDFTNNFSKQQAYHFIFNDKMNVEMKKQIAKRLLDYKVVQEDDILKNSLEGIVYNDTKHNIKAGLVKPLAYMHRNILDHRDLFNSIFKIEPMKEKTNVGLRSISWVDARKHAEEEGKAESTTNTFGIENPYYYKHNLKKKLKGLKNFRVNESYEESPEYDDLQIVLNIFKEKNVKPLFISVPVNGPWYDYAGFPKERREVYYKKVREQVEKAGYPVVDFSGHEYDKYFLKDTIHLGWKGWIYFDEAVQNFYNEKLEHHHHHH | failed
18 | MASISATLYELCEAVDHPVPTRDRDVEAVFAEIEFDAIEFCPIEFVILPIGDWLDIFGDKIVLSEPFESAVDCRLRDPGAVAELCRRARLLFRLDENRARTLVTEQVCECFRISHVGHCKRAISWFVNIGCAVLGFLSGFSQRSHKKLPSISALTFRVRMSNRQTRTPTSVLLPTVSWTAACDDVAAQLGPEDELLIIHDSKDDPVVDRKPLSENVQFIPAGDPVGCSGKANAIAAGMEAANHDRLVWTDDDFHHPPDWLDRLHKDYAEYGPTTELPAFVGQDPLAVLLEPVYVLGGTLGTYMGDHAWGGAVIFDRSALDEERFLSELRQTISDDGLLGEHISVTSVQRVRRVPMGGSLRQTLERHIRFNQIFSTHDPTVAKLSFGVLVAVLIGCVFFPLLAVVLTVLTAGVSASFGVRRASLLLTVPALVAAVPLGLYAFARDTFVWGGRRYRWHSKFDVEVLNE | failed
19 | MSDKGTDTKDKEKKAGKKKTASDRIEVRQSGVHGKGVYAIGQIAEGERVIEYKGEHISWKEALKRHPHDPNDPNHTFYFSLDDGDVIDAKFGGNRARWINHACDPNCEAREKKGRVFIHALRDIEPGEELFYDYGLVIDARYTKKLKQEYECRCGSPKCRGTMLAPKDKK | failed
20 | MKKSSILVFLLTYGLFYVSSILFPIDRMWYDALEKPSWTPSGMTIGIVWTVLYGLIALSVAIIYNKYGCKPKTFWFIFLLNYMCNQAFSYFQFSQKDLFLATIDCLLVAVTTLLLIAVSSSLSKVSTWLLIPYFLWATFATYLSWSIYSIN | failed
